The values below come from patent publication US20240165165A1, “PHARMACEUTICAL COMPOSITIONS AND THEIR METHODS OF USE” (The Trustees of Indiana University, priority 2021, published 2024).

Assay type in all cases: cell-based, mouse
Experiment [1] concerns RANKL-stimulated RAW264.7 pre-osteoclasts. Description: Western blot of NFATc1 and cathepsin K. The protocol:
Western blot analysis and mass spectrometry. Western blot analysis was conducted using known procedures. Antibodies were used against ANXA1, β-catenin, caspase 3, Lrp5, Lrp6, Runx2, Sclerostin, Snail, TGFβ, NFATc1, cathepsin K (Cell Signaling, Danvers, MA, USA), DMP1, ANXA6, CXCL5 (Abcam, Cambridge, MA, USA), M-CSF, MMP9, OPN, TPM4 (Santa Cruz, Dallas, TX, USA), WISP1 (R&D systems, Minneapolis, MN, USA), β-actin (Sigma, Saint Louis, MO, USA), LIMA1, Trail (Novus, Centennial, CO, USA), p53 and CXCL1 (Invitrogen, Carlsbad, California, USA), and DSP (ProteinTech, Rosemont, IL, USA). The expression levels of Sclerostin and Lrp5 in CM were detected by ELISA (My BioSource, San Diego, CA, USA). Proteins from A5 osteocyte CM, Y4 osteocyte CM, and osteoclast control CM (RAW264.7 cells) were analyzed by the HF Hybrid Quadrupole Orbitrap mass spectrometry. Among 549 identified proteins, 49 proteins presented higher expression levels in A5 CM than Y4 CM and control CM. […]
Western blot analysis and protein array analysis. […] A proteome profiler mouse XL cytokine array kit (R&D Systems, Minneapolis, MN, USA) was also employed, and the expression of 111 cytokines and chemokines in MSC-derived CM was determined.
Western blot analysis. […] The protein concentration was determined using a BCA Protein Assay kit (Thermo-Fisher). […]

The next experiment concerns EO771 cells. Briefly: Western blot of proteins in treated tumor cells. The protocol:
Western blot analysis and mass spectrometry. Western blot analysis was conducted using known procedures. Antibodies were used against ANXA1, β-catenin, caspase 3, Lrp5, Lrp6, Runx2, Sclerostin, Snail, TGFβ, NFATc1, cathepsin K (Cell Signaling, Danvers, MA, USA), DMP1, ANXA6, CXCL5 (Abcam, Cambridge, MA, USA), M-CSF, MMP9, OPN, TPM4 (Santa Cruz, Dallas, TX, USA), WISP1 (R&D systems, Minneapolis, MN, USA), β-actin (Sigma, Saint Louis, MO, USA), LIMA1, Trail (Novus, Centennial, CO, USA), p53 and CXCL1 (Invitrogen, Carlsbad, California, USA), and DSP (ProteinTech, Rosemont, IL, USA). The expression levels of Sclerostin and Lrp5 in CM were detected by ELISA (My BioSource, San Diego, CA, USA). Proteins from A5 osteocyte CM, Y4 osteocyte CM, and osteoclast control CM (RAW264.7 cells) were analyzed by the HF Hybrid Quadrupole Orbitrap mass spectrometry. Among 549 identified proteins, 49 proteins presented higher expression levels in A5 CM than Y4 CM and control CM. Among them, 11 proteins (p53; SPARC=osteonectin; TPM1, TPM4=tropomyosin 1 & 4; ANXA1, ANXA6=annexin A1 & A6; FMOD=fibromodulin; OGN=osteoglycin; DSP=desmoplakin; AHNAK=desmoyokin; and LIMA1=[…] domain actin-binding protein 1) were identified as potential tumor suppressors.
(§1) Western blot analysis and protein array analysis. Western blot analysis was conducted using the procedure previously described. Antibodies against Lrp5, Runx2, Snail, TGFβ, sclerostin, Calr, p-eIF2α, eIF2α (Cell Signaling, Danvers, MA, USA), LIF, Trail (Novus Biologicals, Centennial, CO, USA), MMP9, NFATc1, cathepsin K (Santa Cruz Biotechnology, Dallas, TX, USA), p53, CXCL2, Ppib (Invitrogen, Carlsbad, CA, USA), Hsp90ab1 (Abcam, Cambridge, UK), and β-actin (Sigma, Saint Louis, MO, USA) were used. A proteome profiler mouse XL cytokine array kit (R&D Systems, Minneapolis, MN, USA) was also employed, and the expression of 111 cytokines and chemokines in MSC-derived CM was determined.
Spheroid assay, plasmid transfection, and Western blot analysis. […]
In general terms: Immunoblotting shows a protein as a band on a membrane.

Another experiment deals with TRAMP cells. Briefly: Western blot of proteins in treated tumor cells. The protocol:
as §1
Western blot analysis. Cultured cells were lysed in a radio-immunoprecipitation assay buffer with protease inhibitors (Santa Cruz Biotechnology, Santa Cruz, CA, USA) and phosphatase inhibitors (Calbiochem, Billerica, MA, USA). The protein concentration was determined using a BCA Protein Assay kit (Thermo-Fisher). Proteins were fractionated by 10-15% SDS gels and electro-transferred to polyvinylidene difluoride transfer membranes (Millipore, Billerica, MA, USA). […] The level of proteins was determined using a SUPERSIGNAL™ west femto maximum sensitivity substrate (Thermo Scientific, Waltham, MA, USA), and a luminescent image analyzer (LAS-3000, Fuji Film, Tokyo, Japan) was used to quantify signal intensities. […]

B1: Trail: recombinant TRAIL proteins, apoptosis-inducing factor (protein, UniProt P50592 1-291, looked up)
Tumor necrosis factor ligand …: MPSSGALKDLSFSQHFRMMVICIVLLQVLLQAVSVAVTYMYFTNEMKQLQDNYSKIGLACFSKTDEDFWDSTDGEILNRPCLQVKRQLYQLIEEVTLRTFQDTISTVPEKQLSTPPLPRGGRPQKVAAHITGITRRSNSALIPISKDGKTLGQKIESWESSRKGHSFLNHVLFRNGELVIEQEGLYYIYSQTYFRFQEAEDASKMVSKDKVRTKQLVQYIYKYTSYPDPIVLMKSARNSCWSRDAEYGLYSIYQGGLFELKKNDRIFVSVTNEHLMDLDQEASFFGAFLIN
Take B1: the “NFATc1 and cathepsin K” value in experiment [1] is listed as “decreased”. Moreover, the “tumor-promoting/tumorigenic proteins (Lrp5, MMP9, Runx2, TGFβ, Snail, IL1β etc.) in EO771 cells” value with EO771 cells was “reduced”. Also, the “cleaved caspase 3 in TRAMP cells” value in the experiment on TRAMP cells is “increase”. Besides, the “tumor-promoting genes (Lrp5, Runx2, MMP9, Snail, TGFβ) in TRAMP cells” value with TRAMP cells (Western blot) was “downregulated”.
